Legend:
[1] = molecular target: opioid growth factor receptor (OGFr) (human) (UniProt Q9NZT2); assay: cell-based or functional assay
Cdk4 = molecular target: T1, Cdk4 (human, UniProt P11802 2-303); assay: Cdk4 immunoprecipitation from SCC-1 cell homogenates, Western blot with p16 antibodies
T1 construct: Endogenous protein immunoprecipitated from SCC-1 cell homogenates with a commercial polyclonal Cdk4 antibody; also called Cdk4 kinase
Text: Cell cycle progression depends on both positive and negative regulators.

opioid growth factor receptor (OGFr) (human), sequence (Q9NZT2 whole entry): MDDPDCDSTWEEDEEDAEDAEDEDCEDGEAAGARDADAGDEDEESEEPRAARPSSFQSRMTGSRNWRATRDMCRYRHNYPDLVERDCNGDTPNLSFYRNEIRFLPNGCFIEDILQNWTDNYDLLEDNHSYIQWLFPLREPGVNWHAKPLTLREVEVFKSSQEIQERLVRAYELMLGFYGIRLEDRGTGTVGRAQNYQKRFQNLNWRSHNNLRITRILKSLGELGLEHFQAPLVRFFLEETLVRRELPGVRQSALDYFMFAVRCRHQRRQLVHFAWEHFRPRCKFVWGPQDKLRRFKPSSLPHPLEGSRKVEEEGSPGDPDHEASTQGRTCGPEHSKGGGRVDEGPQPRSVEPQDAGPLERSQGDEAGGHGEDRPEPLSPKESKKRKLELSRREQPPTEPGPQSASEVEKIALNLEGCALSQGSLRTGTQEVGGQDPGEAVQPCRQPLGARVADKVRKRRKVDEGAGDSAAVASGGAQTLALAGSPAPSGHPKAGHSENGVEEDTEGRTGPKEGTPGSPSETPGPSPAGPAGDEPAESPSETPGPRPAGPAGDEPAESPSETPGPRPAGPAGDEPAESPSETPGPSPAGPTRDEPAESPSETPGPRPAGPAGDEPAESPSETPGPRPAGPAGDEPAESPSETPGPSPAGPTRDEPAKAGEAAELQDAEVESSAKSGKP
T1 sequence (P11802 2-303 limits assumed): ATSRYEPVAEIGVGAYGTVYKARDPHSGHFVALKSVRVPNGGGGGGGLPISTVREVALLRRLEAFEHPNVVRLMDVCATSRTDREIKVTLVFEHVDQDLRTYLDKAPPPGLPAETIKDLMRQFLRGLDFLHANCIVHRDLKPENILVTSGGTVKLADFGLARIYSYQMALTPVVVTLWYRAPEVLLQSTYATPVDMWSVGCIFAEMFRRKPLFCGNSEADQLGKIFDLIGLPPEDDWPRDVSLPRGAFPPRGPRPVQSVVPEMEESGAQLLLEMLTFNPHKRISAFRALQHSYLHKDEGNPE

| Molecule | growth of control siRNA-treated SCC-1 cells (cell number at 96 h) [1] [%] | growth of wt SCC-1 cells (cell number at 96 h) [1] [%] | binding result (Cdk4) |
| --- | --- | --- | --- |
| opioid growth factor (OGF), [Met5]-enkephalin (from UniProt P01210 100-104) (peptide) | 46 | 29 | – |
| p16 (INK4a) (other, human, UniProt P42771 1-156, looked up, Endogenous protein co-immunoprecipitated with Cdk4 from SCC-1 cell homogenates and detected with a commercial p16 antibody) MEPAAGSSMEPSADWLATAAARGRVEEVRALLEAGALPNAPNSYGRRPIQVMMMGSARVAELLLLHGAEPNCADPATLTRPVHDAAREGFLDTLVVLHRAGARLDVRDAWGRLPVDLAEELGHRDVARYLRAAAGGTRGSNHARIDAAEGPSDIPD | – | – | binds |
